The source of these data is patent publication US6413737.

B1: preproecarin S396, delta III, IV (pDOEC38) (protein)
chain: CSIILGSGNVNDYEVVYPQKVTALPKGAVQQPEQKYEDAMQYEFEVKGEPVVLHLEKNKELFSEDYSETHYSSDDREITTNPSVEDHCYYHGRIQNDAESTASISACNGLKGHFKLRGETYFIEPLKIPDSEAHAVYKYENIENEDEAPKMCGVTQDNWESDEPIKKTLGLIVPPHERKFEKKFIELVVVVDHSMVTKYNNDSTAIRTWIYEMLNTVNEIYLPFNIRVALVGLEFWCNGDLINVTSTADDTLHSFGEWRASDLLNRKRHDHAQLLTNVTLDHSTLGITFVYGMCKSDRSVELILDYSNITFNMAYIIAHEMGHSLGMLHDTKFCTCGAKPCIMFGKESIPPPKEFSSCSYDQYNKYLLKYNPKCILDSP
B2: preproecarin S396, S170 delta III, IV (pDOEC40) (protein)
chain: B1 chain with C152S
B3: preproecarin S396, delta IV (pDOEC37) (protein)
chain: CSIILGSGNVNDYEVVYPQKVTALPKGAVQQPEQKYEDAMQYEFEVKGEPVVLHLEKNKELFSEDYSETHYSSDDREITTNPSVEDHCYYHGRIQNDAESTASISACNGLKGHFKLRGETYFIEPLKIPDSEAHAVYKYENIENEDEAPKMCGVTQDNWESDEPIKKTLGLIVPPHERKFEKKFIELVVVVDHSMVTKYNNDSTAIRTWIYEMLNTVNEIYLPFNIRVALVGLEFWCNGDLINVTSTADDTLHSFGEWRASDLLNRKRHDHAQLLTNVTLDHSTLGITFVYGMCKSDRSVELILDYSNITFNMAYIIAHEMGHSLGMLHDTKFCTCGAKPCIMFGKESIPPPKEFSSCSYDQYNKYLLKYNPKCILDSPLRKDIASPAVCGNEIWEEGEECDCGSPADCRNPCCDAATCKLKPGAECGNGECCDKCKIRKAGTECRPARDDCDVAEHCTGQSAECPRNEFQR
B4: preproecarin S396, S170, delta IV (pDOEC39) (protein)
chain: B3 chain with C152S
B5: preproecarin S396, S170, His6 (pDOEC35) (protein)
chain: CSIILGSGNVNDYEVVYPQKVTALPKGAVQQPEQKYEDAMQYEFEVKGEPVVLHLEKNKELFSEDYSETHYSSDDREITTNPSVEDHCYYHGRIQNDAESTASISACNGLKGHFKLRGETYFIEPLKIPDSEAHAVYKYENIENEDEAPKMSGVTQDNWESDEPIKKTLGLIVPPHERKFEKKFIELVVVVDHSMVTKYNNDSTAIRTWIYEMLNTVNEIYLPFNIRVALVGLEFWCNGDLINVTSTADDTLHSFGEWRASDLLNRKRHDHAQLLTNVTLDHSTLGITFVYGMCKSDRSVELILDYSNITFNMAYIIAHEMGHSLGMLHDTKFCTCGAKPCIMFGKESIPPPKEFSSCSYDQYNKYLLKYNPKCILDSPLRKDIASPAVCGNEIWEEGEECDCGSPADCRNPCCDAATCKLKPGAECGNGECCDKCKIRKAGTECRPARDDCDVAEHCTGQSAECPRNEFQRNGQPCLNNSGYCYNGDCPIMLNQCIALFSPSATVAQDSCFQRNLQGSYYGYCTKEIGYYGKRFPCAPQDVKCGRLYCLDNSFKKNMRCKNDYSYADENKGIVEPGTKCEDGKVCINRKCVDVNTAYHHHHHH
B6: preproecarin P396, His6 (pDOEC34) (protein)
chain: B5 chain with S152C, S378P
B7: preproecarin S396, His6 (pDOEC30) (protein)
chain: B5 chain with S152C

Where a chain is given by its changes, count along the chain named.

This data set deals with human prothrombin, P00734.
B1 came in with an Ecarin Activity, 48 Hours, +APMA of 0; an Ecarin Activity, 48 Hours, -APMA of 0; an Ecarin Activity, 120 Hours, +APMA of 14; an Ecarin Activity, 120 Hours, -APMA of 0. In addition, the prothrombin converting activity entry is “Deletion of the Cys-rich domain (positions 491 to 616) or the disintegrin and Cys-rich domains (398-616) abolished all ecarin activity in the presence or absence of APMA”.
Protein B2 showed an Ecarin Activity, 48 Hours, +APMA of 50; an Ecarin Activity, 48 Hours, -APMA of 0; an Ecarin Activity, 120 Hours, +APMA of 0; an Ecarin Activity, 120 Hours, -APMA of 0. Also, the prothrombin converting activity entry was “Deletion of the Cys-rich domain (positions 491 to 616) or the disintegrin and Cys-rich domains (398-616) abolished all ecarin activity in the presence or absence of APMA”.
B3 returned an Ecarin Activity, 48 Hours, +APMA of 0; an Ecarin Activity, 48 Hours, -APMA of 0; an Ecarin Activity, 120 Hours, +APMA of 68; an Ecarin Activity, 120 Hours, -APMA of 34. For the same protein, the prothrombin converting activity entry was “Deletion of the Cys-rich domain (positions 491 to 616) or the disintegrin and Cys-rich domains (398-616) abolished all ecarin activity in the presence or absence of APMA”.
On to B4, for which the Ecarin Activity, 48 Hours, +APMA is 0; the Ecarin Activity, 48 Hours, -APMA was found to be 0; the Ecarin Activity, 120 Hours, +APMA was 0; the Ecarin Activity, 120 Hours, -APMA was 0. Moreover, the prothrombin converting activity result was “Deletion of the Cys-rich domain (positions 491 to 616) or the disintegrin and Cys-rich domains (398-616) abolished all ecarin activity in the presence or absence of APMA”.
On to B5, for which the “Ecarin Activity, 48 Hours, +APMA” value is 7,526; the “Ecarin Activity, 48 Hours, -APMA” value was 12,127; the “Ecarin Activity, 120 Hours, +APMA” value is recorded as 14,850; the “Ecarin Activity, 120 Hours, -APMA” value was 20,524. Further, the prothrombin converting activity entry was “Alteration of position 170 to serine resulted in constituitive activation of proecarin, which was partially inhibited by the addition of APMA”.
The like results for B6 were, in that order, 32, 36, 0, 43 and “Proecarin having the sequence disclosed in Nishida et al. (supra) had no activity in the presence or absence of APMA”.
Turning to B7, the “Ecarin Activity, 48 Hours, +APMA” value was 74,077; the “Ecarin Activity, 48 Hours, -APMA” value is 20,079; the “Ecarin Activity, 120 Hours, +APMA” value is given as 164,602; the “Ecarin Activity, 120 Hours, -APMA” value was 28,372. For the same protein, the “conversion of prothrombin to thrombin by immobilized ecarin, Coomassie stained SDS-PAGE” value is recorded as “essentially complete (greater than 95%)”; the prothrombin converting activity entry was “Proecarin having a serine at position 396 was active in the absence of APMA, and the amount of activity increased several fold by pretreatment with APMA”.
